Literature values as cited in publication PMC7221782.
Values joined by “and” are separate entries in the source; they are usually repeats but may differ in a detail not shown here. Equal values may be shown once.

Target: Gal4 (Saccharomyces cerevisiae) (UniProt P04386)

Kd: 8.5 µM and 20 µM
Substance: Gal4 (from UniProt P04386)
